Source: the supplement of paper PMC10201428
± gives the standard deviation of the averaged measurements.

B1: library; a variant is named by its letters at N, in order (parent)
chain: AATGTTGTTGATGCAACCATAAAGTGATATTTAATAATTATTTATAATCAGCAACTTAACCACAAAACAACCATATATTGATATNTCACAAAACAACCATAANTTGATATTTTTGTGAATCGAGTATTTCAGCAAAACTACTGCAGTAAGAA

What was measured:
[1] = variants of: B1; experiment: relative integration efficiency (T-LR orientation) vs wild-type transposon end (log2 (normalized fold change)); transposon end mutated: left end; higher = more efficient transposition; details: with VchCAST RNA-guided transposition machinery (E. coli BL21(DE3) host, lacZ target)
Method: (§1)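 Pooled, barcoded VchCAST (Tn6677) mini-transposon donor libraries; each variable transposon-end sequence sits in a fixed pDonor mini-transposon context (10-bp barcode and cargo not included). Left- or right-end libraries were co-transformed with pEffector (TniQ-Cascade, TnsABC, lacZ crRNA, T7, 0.1 mM IPTG) into E. coli BL21(DE3) and grown 18 h at 37 C. T-LR and T-RL junction amplicons were sequenced; output/input barcode fold change was normalised to the mean of four wild-type barcodes and log2-transformed. Two biological replicates; zero-count/undetected variants carry floor values (-10 / -15), censored here. Barcode uncoupling by PCR recombination adds noise.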

[2] = variants of: B1; experiment: relative integration efficiency (T-RL orientation) vs wild-type transposon end (log2 (normalized fold change)); transposon end mutated: left end; higher = more efficient transposition; details: with VchCAST RNA-guided transposition machinery (E. coli BL21(DE3) host, lacZ target)
Method: as §1

Variant	relative integration efficiency (log2) [1]	relative integration efficiency (log2) [2]
TA A70C T76A T84A C87A T104G T113A	0.771 ± 0.098	0.69 ± 0.33
CC T104A T105A G106C	-2.2109 ± 0.0012	-1.71 ± 0.67
TA A22T G24T T31C A33C T76A T78A T84A C87A T104A T110A T113A	-0.396 ± 0.056	-0.175 ± 0.33
AG	0.27 ± 0.094	0.00541 ± 0.045
TA G24A T30A T76A T78A T84A C87A T104A T110A T113A	0.184 ± 0.12	0.0385 ± 0.19
TA A23G G24T A33T T76A T78G C87A A102T T111C T113C	-0.451 ± 0.41	-0.227 ± 0.17
TA A22T G24T T31C A33C A70C T76A T86G T104G T113A	-0.49 ± 0.73	-0.861 ± 0.53
CC A21T A22T A23T G24C A75T T76A A77T T78A A101T A102T T104A	-2.73 ± 1.6	-2.03 ± 0.58
CG A16C C17A	-0.804 ± 0.72	-0.728 ± 0.41
TA A22T G24T T31C A33C T76A T78A T84A C87A A96C T110A T113A	-0.768 ± 1.2	-0.365 ± 0.32
CA T104G T113A	-0.00439 ± 0.14	-0.216 ± 0.19
TA T76A T78G C87A A96C T112G T113C	0.518 ± 0.51	0.206 ± 0.018
CG A1T A2T T3A G4T T5A	-0.359 ± 0.037	-0.373 ± 0.043
TA A22T G24T T31C A33C T76A T78G C87A A102T T111C T113C	-0.662 ± 0.16	-0.645 ± 0.14
CG A2T T3A G4C T5A	-0.131 ± 0.037	-0.0191 ± 0.036
TA A16C G24T T32G A33C A70C T76A T86G T104G T113A	-0.573 ± 0.99	-0.869 ± 0.48
CA A23G G24T A33T A96C T112G T113C	-0.242 ± 0.57	-0.198 ± 0.26
TA A23G G24T A33T T76A T78G C87A T104G T113A	0.453 ± 0.52	-0.0355 ± 0.21
CG A16T	-0.444 ± 0.68	0.0359 ± 0.064
CG A16C	-0.374 ± 0.29	-0.26 ± 0.13

Variant	relative integration efficiency (log2) [1]	relative integration efficiency (log2) [2]
CG A16G	-0.395 ± 0.6	-0.205 ± 0.27
TA A23G G24T A33T A70C T76A T86G A96C T110A T113A	0.0515 ± 0.56	0.0613 ± 0.44
TA A23G G24T A33T T76A T78A T84A C87A A96C T110A T113A	0.43 ± 0.2	0.182 ± 0.35
CA G24A T30A A102T T111C T113C	0.116 ± 0.42	-0.31 ± 0.36
TA A16C G24T T32G A33C T76A T78A T84A C87A A102T T111C T113C	-0.59 ± 0.77	-0.405 ± 0.22
TA A23G G24T A33T T76A T78A T84A C87A T104G T113A	0.315 ± 0.39	-0.265 ± 0.4
TA A22T G24T T31C A33C T76A T78G C87A T104A T110A T113A	-0.444 ± 0.45	-0.395 ± 0.24
TA A16C G24T T32G A33C T76A T78A T84A C87A A96C T110A T113A	-0.572 ± 0.61	-0.189 ± 0.31
TA A16C G24T T32G A33C T76A T78G C87A T104G T113A	-0.174 ± 1.1	-0.675 ± 0.24
TA G24A T30A T76A T78G C87A T104A T110A T113A	0.464 ± 0.53	-0.242 ± 0.034
TA A22T G24T T31C A33C A70C T76A T86G A96C T112G T113C	-0.771 ± 0.36	-0.328 ± 0.2
TA G24A T30A T76A A77G C87T A96C T112G T113C	-0.263 ± 0.26	0.0641 ± 0.26
CG A19T T20A	-0.844 ± 0.51	-1.12 ± 0.56
TA A16C G24T T32G A33C A70C T76A T86G A102T T111C T113C	-1.2 ± 0.65	-0.838 ± 0.29
TA A70C T76A T86G A96C T110A T113A	-0.0134 ± 0.035	-0.255 ± 0.15
TA A22T G24T T31C A33C T76A T78A T84A C87A A102T T111C T113C	-0.838 ± 1.2	-0.485 ± 0.43
CG A16C C17A C18A A19C	-3.65 ± 3.1	-2.24 ± 0.77
TA A16C G24T T32G A33C A70C T76A T84A C87A T104A T110A T113A	-2.03 ± 1.6	-0.844 ± 0.55
CG A19C T20G	-2.1 ± 1.2	-2.69 ± 0.82
TA G24A T30A T76A A77G C87T T104A T110A T113A	0.503 ± 0.28	-0.582 ± 0.57

Variant	relative integration efficiency (log2) [1]	relative integration efficiency (log2) [2]
TA A16C G24T T32G A33C T76A A77G C87T T104A T110A T113A	-0.782 ± 0.82	-1.38 ± 0.49
CG A19T A73T A99T	-2.5 ± 0.48	-2.22 ± 0.88
TA A22T G24T T31C A33C T76A A77G C87T T104A T110A T113A	0.0775 ± 0.37	-0.819 ± 0.52
TA A22T G24T T31C A33C A70C T76A T84A C87A A102T T111C T113C	-0.102 ± 0.33	-0.168 ± 0.35
TA A22T G24T T31C A33C T76A A77G C87T A96C T110A T113A	0.345 ± 0.28	-0.753 ± 0.58
CA A16C G24T T32G A33C A96C T112G T113C	-1.27 ± 0.78	-0.695 ± 0.12
TA A16C G24T T32G A33C T76A T78G C87A T104A T110A T113A	-0.325 ± 0.88	-0.13 ± 0.49
TA G24A T30A T76A T78A T84A C87A T104G T113A	0.368 ± 0.38	-0.186 ± 0.3
CG A1T A2T G4T T5G	-0.165 ± 0.16	-0.0703 ± 0.2
TA A22T G24T T31C A33C T76A A77G C87T T104G T113A	-1.13 ± 0.85	-1.41 ± 0.56
TA A70C T76A T86G T104G T113A	0.359 ± 0.88	-0.145 ± 0.22
CA A22T G24T T31C A33C T104A T110A T113A	-0.859 ± 0.31	-0.686 ± 0.34
CG A16C G24T T32G A33C	-0.475 ± 0.83	-0.332 ± 0.18
TA A70C T76A T86G A102T T111C T113C	-0.561 ± 0.29	-0.418 ± 0.19
TA G24A T30A A70C T76A T84A C87A T104G T113A	0.182 ± 0.22	0.0306 ± 0.22
TA A23G G24T A33T T76A T78G C87A A96C T112G T113C	0.535 ± 0.16	0.327 ± 0.1
CG A1C A2C T3G G4T T5G	-0.299 ± 0.17	-0.197 ± 0.14
CA A22T G24T T31C A33C A96C T112G T113C	-0.822 ± 0.81	-0.76 ± 0.32
